US20150322128A1 (Sanofi, published 2015)
Substitutions are numbered along the chain they refer to. Where two headings read alike, the source gives them in different places. Numbered stars: 1 amine (or outer) side, 2 acyl side, 3 side chain; on linkers, the order of the positions; unused ones are H or OH. Square brackets hold non-standard residues; d marks the D form. Side chains are listed from the residue outwards. Ends that are not written are not given here. * marks the point of attachment. γGlu = O=C(O)[C@H](CCC(=O)[*:2])N[*:1]; Palmitoyl = CCCCCCCCCCCCCCCC(=O)*; Aib = CC(C)(N)C(=O)O

T1: human GIP receptor (human, UniProt P48546 22-466)
T1 sequence (looked up): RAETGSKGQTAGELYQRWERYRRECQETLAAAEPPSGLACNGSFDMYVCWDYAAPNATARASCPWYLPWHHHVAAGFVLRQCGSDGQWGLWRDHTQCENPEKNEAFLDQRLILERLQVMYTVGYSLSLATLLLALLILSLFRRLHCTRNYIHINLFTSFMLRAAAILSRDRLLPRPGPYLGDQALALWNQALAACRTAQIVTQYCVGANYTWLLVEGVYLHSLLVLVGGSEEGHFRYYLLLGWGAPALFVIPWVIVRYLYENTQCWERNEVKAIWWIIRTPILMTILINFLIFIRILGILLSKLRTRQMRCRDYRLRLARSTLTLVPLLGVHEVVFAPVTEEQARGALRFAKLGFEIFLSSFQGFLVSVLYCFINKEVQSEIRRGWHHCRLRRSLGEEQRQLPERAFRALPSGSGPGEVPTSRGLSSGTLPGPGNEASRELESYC

B1: SEQ ID NO: 29 (peptide)
peptide: HXHGTFTSDLSKQKDEEAARLFIEWLKAGGPSSGAPPPS
modifications: D-Ser at 2; Lys 14 side chain K(γE-γE-x53) = (S)-4-Carboxy-4-((S)-4-carboxy-4-hexadecanoylamino-butyrylamino)-butyryl-; C-terminal amide
B2: SEQ ID NO: 30 (peptide)
peptide: B1 peptide with D15E
modifications: D-Ser at 2; Lys 14 side chain K(γE-γE-x53) = (S)-4-Carboxy-4-((S)-4-carboxy-4-hexadecanoylamino-butyrylamino)-butyryl-; C-terminal amide
B3: SEQ ID NO: 27 (peptide)
peptide: H[dS]HGTFTSDLSKQK([γGlu-γGlu-Palmitoyl])EEEAARLFIEWL[Aib]K[dA]GPSSGAPPPS-NH2
modifications: N-terminus assumed
SMILES: CCCCCCCCCCCCCCCC(=O)N[C@@H](CCC(=O)N[C@@H](CCC(=O)NCCCC[C@H](NC(=O)[C@H](CCC(N)=O)NC(=O)[C@H](CCCCN)NC(=O)[C@H](CO)NC(=O)[C@H](CC(C)C)NC(=O)[C@H](CC(=O)O)NC(=O)[C@H](CO)NC(=O)[C@@H](NC(=O)[C@H](Cc1ccccc1)NC(=O)[C@@H](NC(=O)CNC(=O)[C@H](Cc1c[nH]cn1)NC(=O)[C@@H](CO)NC(=O)[C@@H](N)Cc1c[nH]cn1)[C@@H](C)O)[C@@H](C)O)C(=O)N[C@@H](CCC(=O)O)C(=O)N[C@@H](CCC(=O)O)C(=O)N[C@@H](CCC(=O)O)C(=O)N[C@@H](C)C(=O)N[C@@H](C)C(=O)N[C@@H](CCCNC(=N)N)C(=O)N[C@@H](CC(C)C)C(=O)N[C@@H](Cc1ccccc1)C(=O)N[C@H](C(=O)N[C@@H](CCC(=O)O)C(=O)N[C@@H](Cc1c[nH]c2ccccc12)C(=O)N[C@@H](CC(C)C)C(=O)NC(C)(C)C(=O)N[C@@H](CCCCN)C(=O)N[C@H](C)C(=O)NCC(=O)N1CCC[C@H]1C(=O)N[C@@H](CO)C(=O)N[C@@H](CO)C(=O)NCC(=O)N[C@@H](C)C(=O)N1CCC[C@H]1C(=O)N1CCC[C@H]1C(=O)N1CCC[C@H]1C(=O)N[C@@H](CO)C(N)=O)[C@@H](C)CC)C(=O)O)C(=O)O
B4: SEQ ID NO: 31 (peptide)
peptide: H[dS]QGTFTSDLSKQK([γGlu-γGlu-Palmitoyl])EEEAARLFIEWLKAGGPSSGAPPPS-NH2
modifications: N-terminus assumed
SMILES: CCCCCCCCCCCCCCCC(=O)N[C@@H](CCC(=O)N[C@@H](CCC(=O)NCCCC[C@H](NC(=O)[C@H](CCC(N)=O)NC(=O)[C@H](CCCCN)NC(=O)[C@H](CO)NC(=O)[C@H](CC(C)C)NC(=O)[C@H](CC(=O)O)NC(=O)[C@H](CO)NC(=O)[C@@H](NC(=O)[C@H](Cc1ccccc1)NC(=O)[C@@H](NC(=O)CNC(=O)[C@H](CCC(N)=O)NC(=O)[C@@H](CO)NC(=O)[C@@H](N)Cc1c[nH]cn1)[C@@H](C)O)[C@@H](C)O)C(=O)N[C@@H](CCC(=O)O)C(=O)N[C@@H](CCC(=O)O)C(=O)N[C@@H](CCC(=O)O)C(=O)N[C@@H](C)C(=O)N[C@@H](C)C(=O)N[C@@H](CCCNC(=N)N)C(=O)N[C@@H](CC(C)C)C(=O)N[C@@H](Cc1ccccc1)C(=O)N[C@H](C(=O)N[C@@H](CCC(=O)O)C(=O)N[C@@H](Cc1c[nH]c2ccccc12)C(=O)N[C@@H](CC(C)C)C(=O)N[C@@H](CCCCN)C(=O)N[C@@H](C)C(=O)NCC(=O)NCC(=O)N1CCC[C@H]1C(=O)N[C@@H](CO)C(=O)N[C@@H](CO)C(=O)NCC(=O)N[C@@H](C)C(=O)N1CCC[C@H]1C(=O)N1CCC[C@H]1C(=O)N1CCC[C@H]1C(=O)N[C@@H](CO)C(N)=O)[C@@H](C)CC)C(=O)O)C(=O)O

Assays:
Assay in all cases: cell-based or functional assay
[1] = target: T2, human glucagon receptor (human, UniProt P47871 26-477)
T2 sequence (P47871 26-477): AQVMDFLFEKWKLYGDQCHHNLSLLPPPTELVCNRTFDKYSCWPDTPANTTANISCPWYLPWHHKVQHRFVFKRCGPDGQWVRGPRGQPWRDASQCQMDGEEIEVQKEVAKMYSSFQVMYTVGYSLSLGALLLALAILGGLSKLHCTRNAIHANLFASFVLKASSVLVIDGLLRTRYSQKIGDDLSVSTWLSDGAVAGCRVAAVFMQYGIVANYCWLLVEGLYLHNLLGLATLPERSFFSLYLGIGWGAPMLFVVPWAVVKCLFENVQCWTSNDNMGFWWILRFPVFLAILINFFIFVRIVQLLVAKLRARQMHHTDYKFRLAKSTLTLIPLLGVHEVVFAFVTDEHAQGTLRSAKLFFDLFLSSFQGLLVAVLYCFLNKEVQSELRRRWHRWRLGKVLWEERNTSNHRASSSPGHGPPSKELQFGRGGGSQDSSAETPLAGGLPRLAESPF

[2] = target: T3, human GLP-1 receptor (human, UniProt P43220 24-463)
[3] = target: T1, human GIP receptor
[4] = target: T2, human glucagon receptor; remark: listed apart in the source
[5] = target: T3, human GLP-1 receptor; remark: listed apart in the source
[6] = target: T1, human GIP receptor; remark: listed apart in the source

Binder | EC50 hGlucagon-R [1] [pM] | EC50 hGLP-1R [2] [pM] | EC50 hGIP-1 [3] [pM] | EC50 hGlucagon-R [4] [pM] | EC50 hGLP-1R [5] [pM] | EC50 hGIP-R [6] [pM]
B1 | 2.6 | 0.9 | 112 |  |  | 
B2 | 5.1 | 0.8 | 77.8 |  |  | 
H-HSQGTFTSDLSKQK([γGlu-γGlu-Palmitoyl])DEEAARLFIEWLKAGGPSSGAPPPS-NH2 [SEQ ID NO: 33] | 1.4 | 1 | 70.8 |  |  | 
B3 |  |  |  | 55.4 | 2.1 | 3220
B4 | 7.4 | 1.3 | 345 |  |  | 
